The values below are quoted from earlier work in paper PMC4336166.

pKd: −log10 of the molar value.

This data set concerns the target clathrin coat (Homo sapiens) (UniProt Q00610).
UniProt Q00610, sequence (Q00610 2-1675): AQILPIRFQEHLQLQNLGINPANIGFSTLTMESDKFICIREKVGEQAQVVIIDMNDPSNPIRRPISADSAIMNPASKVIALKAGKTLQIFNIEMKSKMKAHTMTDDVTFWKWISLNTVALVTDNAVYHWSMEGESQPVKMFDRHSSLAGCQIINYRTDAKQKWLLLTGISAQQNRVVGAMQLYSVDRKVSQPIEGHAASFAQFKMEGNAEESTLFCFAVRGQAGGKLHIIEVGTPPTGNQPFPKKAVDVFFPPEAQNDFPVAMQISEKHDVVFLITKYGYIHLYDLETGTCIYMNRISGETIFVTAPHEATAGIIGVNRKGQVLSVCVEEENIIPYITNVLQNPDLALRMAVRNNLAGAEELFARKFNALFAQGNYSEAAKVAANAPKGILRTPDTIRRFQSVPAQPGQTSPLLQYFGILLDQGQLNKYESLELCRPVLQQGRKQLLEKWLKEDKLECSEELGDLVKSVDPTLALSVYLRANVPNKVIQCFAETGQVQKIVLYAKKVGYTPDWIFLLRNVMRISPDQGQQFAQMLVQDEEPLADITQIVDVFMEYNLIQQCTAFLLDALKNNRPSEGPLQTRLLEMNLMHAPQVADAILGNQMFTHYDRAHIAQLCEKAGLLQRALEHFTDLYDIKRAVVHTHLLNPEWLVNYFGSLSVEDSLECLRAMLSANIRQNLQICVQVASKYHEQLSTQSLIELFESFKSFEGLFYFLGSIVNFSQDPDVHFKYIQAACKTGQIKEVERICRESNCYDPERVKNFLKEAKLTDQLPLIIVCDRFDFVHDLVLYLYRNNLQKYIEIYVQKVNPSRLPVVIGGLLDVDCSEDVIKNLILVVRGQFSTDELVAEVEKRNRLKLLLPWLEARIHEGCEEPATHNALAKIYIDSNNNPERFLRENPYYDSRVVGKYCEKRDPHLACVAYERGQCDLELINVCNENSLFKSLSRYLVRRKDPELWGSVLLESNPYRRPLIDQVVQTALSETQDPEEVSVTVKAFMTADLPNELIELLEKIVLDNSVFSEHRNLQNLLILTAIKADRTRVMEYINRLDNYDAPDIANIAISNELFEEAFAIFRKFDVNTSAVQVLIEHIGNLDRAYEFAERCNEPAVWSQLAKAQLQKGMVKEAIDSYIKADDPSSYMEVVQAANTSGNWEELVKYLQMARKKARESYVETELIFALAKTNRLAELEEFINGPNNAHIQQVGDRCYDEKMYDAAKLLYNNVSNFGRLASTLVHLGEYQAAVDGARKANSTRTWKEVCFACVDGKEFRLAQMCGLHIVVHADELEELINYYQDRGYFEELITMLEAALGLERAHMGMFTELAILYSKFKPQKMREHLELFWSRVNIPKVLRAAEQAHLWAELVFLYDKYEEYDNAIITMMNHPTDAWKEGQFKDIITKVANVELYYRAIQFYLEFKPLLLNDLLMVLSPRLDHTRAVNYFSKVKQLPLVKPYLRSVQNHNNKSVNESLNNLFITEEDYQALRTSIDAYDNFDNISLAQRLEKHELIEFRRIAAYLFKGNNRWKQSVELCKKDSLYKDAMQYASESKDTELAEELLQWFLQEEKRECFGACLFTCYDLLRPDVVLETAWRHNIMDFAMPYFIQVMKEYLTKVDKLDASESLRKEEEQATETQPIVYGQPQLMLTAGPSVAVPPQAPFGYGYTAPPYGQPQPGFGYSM

As to epsin CLAP domain (from UniProt Q9Y6I3), the pKd was 3.91.
